In PMC7020240 one finds fold increase of relative luciferase activity data, which are given here for one substance.

This assay deals with C-FLuc-MESA MEC construct (wild type) (P. falciparum). Kind of assay: split reporter.

On to “N-FLuc-ANK1 fragment 3 (amino acids 823 - 1375) (domain or fragment)”, for which the fold increase of relative luciferase activity worked out at 200 fold.
